The text below walks through data of patent publication US20020142976.

This data set has as its system IDH22.

Chain of ATR (chain, as listed by the source): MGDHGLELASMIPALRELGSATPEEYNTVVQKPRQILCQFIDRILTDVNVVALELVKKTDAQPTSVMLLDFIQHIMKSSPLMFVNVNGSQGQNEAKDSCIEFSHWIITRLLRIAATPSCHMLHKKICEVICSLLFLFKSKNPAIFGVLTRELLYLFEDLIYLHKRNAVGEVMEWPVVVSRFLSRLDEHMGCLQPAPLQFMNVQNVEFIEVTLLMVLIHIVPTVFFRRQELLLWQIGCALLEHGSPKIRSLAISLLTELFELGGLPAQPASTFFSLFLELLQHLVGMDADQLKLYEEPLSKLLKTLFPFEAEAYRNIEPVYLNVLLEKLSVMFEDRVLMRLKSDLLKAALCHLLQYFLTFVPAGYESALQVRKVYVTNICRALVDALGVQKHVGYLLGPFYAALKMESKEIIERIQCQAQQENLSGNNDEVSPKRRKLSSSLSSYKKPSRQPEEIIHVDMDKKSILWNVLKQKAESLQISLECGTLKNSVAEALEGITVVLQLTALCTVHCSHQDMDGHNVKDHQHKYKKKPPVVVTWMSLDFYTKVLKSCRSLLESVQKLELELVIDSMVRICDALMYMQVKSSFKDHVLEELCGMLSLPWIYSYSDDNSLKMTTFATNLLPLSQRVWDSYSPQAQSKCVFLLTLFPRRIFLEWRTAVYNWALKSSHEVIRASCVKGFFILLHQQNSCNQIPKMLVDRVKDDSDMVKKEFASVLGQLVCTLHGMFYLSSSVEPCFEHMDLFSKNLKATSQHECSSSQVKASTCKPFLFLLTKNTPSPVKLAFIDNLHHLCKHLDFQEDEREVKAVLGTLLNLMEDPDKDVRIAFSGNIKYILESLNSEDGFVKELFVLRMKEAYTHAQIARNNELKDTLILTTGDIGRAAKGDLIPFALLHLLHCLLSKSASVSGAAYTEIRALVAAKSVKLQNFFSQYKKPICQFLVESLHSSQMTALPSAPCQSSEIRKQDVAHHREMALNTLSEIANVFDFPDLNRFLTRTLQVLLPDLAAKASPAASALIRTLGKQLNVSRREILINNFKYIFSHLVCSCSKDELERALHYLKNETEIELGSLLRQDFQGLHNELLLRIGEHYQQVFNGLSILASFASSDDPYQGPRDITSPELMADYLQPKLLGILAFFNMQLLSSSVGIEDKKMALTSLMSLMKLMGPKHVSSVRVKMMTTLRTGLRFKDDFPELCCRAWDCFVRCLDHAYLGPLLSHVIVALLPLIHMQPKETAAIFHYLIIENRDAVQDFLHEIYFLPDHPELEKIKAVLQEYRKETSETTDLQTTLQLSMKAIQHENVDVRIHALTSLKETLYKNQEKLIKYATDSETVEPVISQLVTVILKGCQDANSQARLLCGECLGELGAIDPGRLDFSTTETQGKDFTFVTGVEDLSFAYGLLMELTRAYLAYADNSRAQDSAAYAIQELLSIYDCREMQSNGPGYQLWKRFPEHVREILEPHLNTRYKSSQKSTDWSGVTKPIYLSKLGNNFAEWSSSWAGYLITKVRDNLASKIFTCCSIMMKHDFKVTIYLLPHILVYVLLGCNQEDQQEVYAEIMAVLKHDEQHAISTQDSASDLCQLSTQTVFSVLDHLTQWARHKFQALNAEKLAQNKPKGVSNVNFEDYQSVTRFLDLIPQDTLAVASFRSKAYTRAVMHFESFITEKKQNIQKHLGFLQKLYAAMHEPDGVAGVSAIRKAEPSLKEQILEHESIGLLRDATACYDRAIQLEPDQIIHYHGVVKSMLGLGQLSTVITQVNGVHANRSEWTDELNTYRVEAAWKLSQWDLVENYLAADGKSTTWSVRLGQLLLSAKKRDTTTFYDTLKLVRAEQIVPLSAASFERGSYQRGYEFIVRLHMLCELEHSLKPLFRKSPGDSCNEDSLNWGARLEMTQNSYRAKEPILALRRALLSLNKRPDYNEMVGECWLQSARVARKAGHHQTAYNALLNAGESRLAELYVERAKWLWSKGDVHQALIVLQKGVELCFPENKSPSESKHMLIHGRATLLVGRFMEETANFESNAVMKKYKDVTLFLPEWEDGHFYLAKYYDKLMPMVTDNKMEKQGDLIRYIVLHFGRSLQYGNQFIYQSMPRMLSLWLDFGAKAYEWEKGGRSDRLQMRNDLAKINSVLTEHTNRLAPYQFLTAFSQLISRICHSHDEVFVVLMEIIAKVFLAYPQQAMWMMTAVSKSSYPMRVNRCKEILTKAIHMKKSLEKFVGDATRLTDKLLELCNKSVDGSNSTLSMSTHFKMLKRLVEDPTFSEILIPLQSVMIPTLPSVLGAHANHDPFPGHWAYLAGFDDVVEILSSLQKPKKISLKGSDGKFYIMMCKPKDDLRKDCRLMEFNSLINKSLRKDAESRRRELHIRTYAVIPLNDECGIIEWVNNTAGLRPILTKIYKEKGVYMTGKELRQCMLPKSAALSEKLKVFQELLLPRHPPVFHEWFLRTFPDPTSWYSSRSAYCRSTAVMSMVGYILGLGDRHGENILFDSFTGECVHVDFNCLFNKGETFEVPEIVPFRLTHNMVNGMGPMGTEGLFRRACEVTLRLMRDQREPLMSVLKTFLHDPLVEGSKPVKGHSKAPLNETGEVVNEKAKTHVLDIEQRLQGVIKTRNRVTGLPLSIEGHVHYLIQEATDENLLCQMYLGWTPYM

Consider ATR, for which the “phosphorylation of peptide substrate (32P kinase assay, plate-captured ATR)” value is on record as “ATR phosphorylated IDH22”.
